Values of other authors, collected in publication PMC12608911.
Like-named read-outs stand apart in the source and are kept apart here. Blank lines part the entries; values can stand above or below the substance they belong to.

Assays:
TREM-1 (Mus musculus) [1] = biological target: TREM-1 (Mus musculus) (UniProt Q9JKE2)
TREM-1 (Mus musculus) [2] = biological target: TREM-1 (Mus musculus) (UniProt Q9JKE2); remark: listed apart in the source
TREM-1 (Homo sapiens) [3] = biological target: TREM-1 (Homo sapiens) (UniProt Q9NP99)
Target sequence in this assay (Q9NP99 21-234): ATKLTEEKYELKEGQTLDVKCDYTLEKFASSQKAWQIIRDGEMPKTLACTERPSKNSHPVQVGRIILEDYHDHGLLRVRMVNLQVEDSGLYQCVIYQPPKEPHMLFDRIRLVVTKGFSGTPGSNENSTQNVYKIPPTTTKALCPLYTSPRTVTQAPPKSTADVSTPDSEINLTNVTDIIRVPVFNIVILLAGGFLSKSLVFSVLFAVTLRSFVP

TREM-1 (Homo sapiens) [4] = biological target: TREM-1 (Homo sapiens) (UniProt Q9NP99); remark: listed apart in the source
Target sequence in this assay (Q9NP99 21-205): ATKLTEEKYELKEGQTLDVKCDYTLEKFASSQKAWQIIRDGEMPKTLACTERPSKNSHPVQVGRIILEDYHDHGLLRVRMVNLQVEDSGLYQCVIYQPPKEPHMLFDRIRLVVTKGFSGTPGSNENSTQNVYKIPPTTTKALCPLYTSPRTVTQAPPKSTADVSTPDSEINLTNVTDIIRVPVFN

TREM-1 (Homo sapiens) [5] = biological target: TREM-1 (Homo sapiens) (UniProt Q9NP99); remark: listed apart in the source
Target sequence in this assay (Q9NP99 21-205): as above

TREM-1 (Homo sapiens) [6] = biological target: TREM-1 (Homo sapiens) (UniProt Q9NP99); remark: listed apart in the source
Target sequence in this assay (Q9NP99 21-205): as above

TREM-1 (Mus musculus) [7] = biological target: TREM-1 (Mus musculus) (UniProt Q9JKE2); remark: listed apart in the source

Sequence of TREM-1 (Mus musculus) (Q9JKE2 21-230): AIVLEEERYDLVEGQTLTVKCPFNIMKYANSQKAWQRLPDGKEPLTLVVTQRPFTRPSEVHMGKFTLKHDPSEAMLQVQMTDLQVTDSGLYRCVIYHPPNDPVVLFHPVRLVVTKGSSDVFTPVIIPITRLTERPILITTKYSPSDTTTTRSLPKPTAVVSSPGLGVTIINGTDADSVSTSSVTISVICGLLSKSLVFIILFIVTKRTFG
Sequence of PGLYRP1 peptide N9 (O75594 22-196): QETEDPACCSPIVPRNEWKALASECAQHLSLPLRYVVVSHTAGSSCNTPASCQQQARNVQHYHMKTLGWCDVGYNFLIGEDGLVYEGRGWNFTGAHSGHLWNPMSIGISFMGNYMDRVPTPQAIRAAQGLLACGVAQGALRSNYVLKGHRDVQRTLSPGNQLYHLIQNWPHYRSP
Sequence of PGLYRP1 peptide N15 (O75594 22-196): as above
Sequence of PGLYRP1 peptide 17 (O75594 22-196): as above
Sequence of HSP70 N7 peptide (P0DMV8 2-641): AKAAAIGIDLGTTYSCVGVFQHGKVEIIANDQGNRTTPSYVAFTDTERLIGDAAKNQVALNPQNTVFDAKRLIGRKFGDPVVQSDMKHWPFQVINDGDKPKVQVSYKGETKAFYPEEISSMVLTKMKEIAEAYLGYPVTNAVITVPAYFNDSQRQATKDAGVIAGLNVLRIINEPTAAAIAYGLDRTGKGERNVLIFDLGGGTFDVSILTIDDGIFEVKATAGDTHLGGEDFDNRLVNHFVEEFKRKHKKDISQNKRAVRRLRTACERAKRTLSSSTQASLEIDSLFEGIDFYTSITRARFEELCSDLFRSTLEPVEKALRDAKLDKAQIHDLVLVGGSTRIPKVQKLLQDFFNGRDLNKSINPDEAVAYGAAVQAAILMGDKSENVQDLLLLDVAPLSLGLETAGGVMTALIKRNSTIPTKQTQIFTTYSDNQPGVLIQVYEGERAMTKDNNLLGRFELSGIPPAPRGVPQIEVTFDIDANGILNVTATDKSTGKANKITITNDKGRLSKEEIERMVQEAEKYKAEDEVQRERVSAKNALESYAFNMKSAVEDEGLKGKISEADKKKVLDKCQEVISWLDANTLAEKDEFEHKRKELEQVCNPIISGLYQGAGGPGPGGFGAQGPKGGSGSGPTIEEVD
Sequence of eCIRP (P60824 whole entry): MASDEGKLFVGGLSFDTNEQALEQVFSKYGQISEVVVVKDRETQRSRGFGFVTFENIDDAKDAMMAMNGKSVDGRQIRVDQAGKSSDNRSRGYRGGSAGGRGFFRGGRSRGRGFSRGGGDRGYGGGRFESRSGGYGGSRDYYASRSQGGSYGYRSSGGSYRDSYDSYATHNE
Sequence of CIRP (P60824 whole entry): as above
Sequence of HMGB1 (P63158 whole entry): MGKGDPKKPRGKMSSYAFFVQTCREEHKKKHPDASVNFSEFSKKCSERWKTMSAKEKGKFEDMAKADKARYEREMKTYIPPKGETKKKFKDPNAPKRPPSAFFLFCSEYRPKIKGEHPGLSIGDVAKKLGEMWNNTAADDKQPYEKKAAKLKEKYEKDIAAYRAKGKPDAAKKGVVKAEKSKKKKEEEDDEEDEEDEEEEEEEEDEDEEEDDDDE

Substance: HMGB1 (from UniProt P63158)
Kd (TREM-1 (Mus musculus) [2]): 35400 nM

Substance: HSP70 N7 peptide (from UniProt P0DMV8)
Kd (TREM-1 (Homo sapiens) [3]): 1.6 nM

Substance: PGLYRP1 peptide 17 (from UniProt O75594)
Kd (TREM-1 (Homo sapiens) [4]): 1.3 nM

Next, values leading:

Kd (TREM-1 (Mus musculus) [1]): 120 nM
Substance: CIRP (from UniProt P60824)

Kd (TREM-1 (Homo sapiens) [5]): 9.7 nM
Substance: PGLYRP1 peptide N9 (from UniProt O75594)

Kd (TREM-1 (Homo sapiens) [6]): 7.4 nM
Substance: PGLYRP1 peptide N15 (from UniProt O75594)

Kd (TREM-1 (Mus musculus) [7]): 117 nM
Substance: eCIRP (from UniProt P60824)
